Laboratory results reported in article PMC5630374.

System: T1, His-CalR (Vibrio parahaemolyticus RIMD2210633), ORF:1a4fc32f
T1 sequence: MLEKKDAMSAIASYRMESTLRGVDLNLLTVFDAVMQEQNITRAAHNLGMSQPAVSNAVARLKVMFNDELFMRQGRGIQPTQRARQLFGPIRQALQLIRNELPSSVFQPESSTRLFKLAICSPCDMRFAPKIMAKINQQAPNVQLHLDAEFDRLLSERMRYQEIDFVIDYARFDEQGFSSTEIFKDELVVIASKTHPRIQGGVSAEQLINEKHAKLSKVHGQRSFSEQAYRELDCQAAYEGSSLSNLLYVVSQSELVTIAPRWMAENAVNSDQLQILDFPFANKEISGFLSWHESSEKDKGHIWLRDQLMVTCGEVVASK
Test: DNase I footprinting
Conditions: 10 mM Tris-HCl pH 7.5, 50 mM NaCl, 1 mM MgCl2, 0.5 mM EDTA, 0.5 mM DTT, 10 mg/ml salmon sperm DNA (so in the source), room temperature, 20 min (EMSA) or 30 min (ToxR …)

For “CAGGAAACAGCTATGACCGGCTTATATTTATTCTACAGATGGACAGCAATAACGTTCCACGTACAACACGTAATTAACATAGTATTTAATTTTTAAGATAACACAATTCTAATTCTTCATCGCTTGTCGATATAAACCAAAATCCCACCATAATAGAATTTAATAACCGTTAATCTTTATATGCACCAGCACTCATTTGTAAGATTAGAAGCAAGGAGTCAATTCTGGGTTTCCGGCCAAAATATAATAACTAACAACCAAAATTGATAAACACTGGCCGTCGTTTTAC (double strand) [exsB promoter, footprint fragment]”, the binding was “binds”.
